Laboratory results from patent US20180049457A1, “ENZYMATIC SYNTHESIS OF SOLUBLE GLUCAN FIBER” (E I DU PONT DE NEMOURS AND COMPANY, priority 2014, published 2018).

B1: GTF4491NT: N terminal-only truncated GTF4491 from Streptococcus salivarius JIM8777, SEQ ID NO: 106, strain SG1292 (protein)
chain: INGKQYYVNSDGSVRKNFVFEQDGKSYYFDAETGALATKSQDEFSTEPIKATVDFSSGNQLYKNDDKSLDQLDTFITADAWYRPKSILKDGKTWTASTEADKRPLLMVWWPDKSTQVNYLNYMQNQGLGAGSFSTNSSQESLDQAAKAVQTKIEERIAREGNTNWLRTSIDQFIKTQPGWNSSTENSSYDHLQGGQLLFNNSKGDTGNRTSHANSDYRLLNRTPTNQTGTRKYFKDNSIGGLEFLLANDIDNSNPAVQAEQLNWLHFMMNIGSIMANDPTANFDGLRVDALDNVDADLLQIASDYFKAAYGVDKSEANAIKHLSYLEAWSANDPYYNKDTKGAQLPIDNALRNALTNLLMRDKNTRMQLGDMTAFINSSLNPRGANDKNGERMANYIFTRAHDTEAQTIIQRIIRDRINPNLFGYNFTRDEIKKAFEIYNEDIDKAHKTYASYNLPSVYALMLTNKDSVTRVYYGDLYREDGHYMAKKTPYFDAIDTLLRARIKYVAGGQDMEVKKVGNDGLLTSVRYGKGANNRTDLGTSETRTQGMGVIMTNNYDFRLGSNETVTMNMGRAHRNQLYRPLLLTTKDGIATYLNDSDVPKNLLKRTDWNGNLTFNANDVFGVENVQVSGYLGVWVPYGAKANQDARTQPSNRANSDGQVYKSSAALDSQVMYEAFSNFQAFADDQPELYMNRVLAKNTDLLKAWGITSVGLPPQYVSSKDGTFLDSIIDNGYAFDDRYDMALSQNNKYGSLEDLLNVLRALHKDGIQAIADWVPDQIYNLPGKEVVNATRVNGYGYHQQGYQIVDQAYVANTRTDGTDYQGKYGGAFLDELKAKYPSIFNRVQISNGKQLPTNEKITKWSAKYFNGTNILGRGINFVLRDDKTNQYFNTSANSQLLPTPLRDTGAITSTQVFQRRGQDVYFLRDNQTVKNEFVQDGNGNWYYFGGDGKMTKGAQNINSKDYYFFDNGVQLRNALRRASNGYTYYYGLDGAMVKNAFVDFDDKHKQVRAFTTQGTMVVGNLHWSGHHFYFDRETGIQAKDRVVRTDDGKLHYYVAETGDMGRNVFATDSSTGKRYYFDADGNTVTGSRVIDGKTYYFNQDGSVGTAYSNRADSIIFENGKARYITPAGEIGRSIFVYNPATKAWNYFDKEGNRVTGRQYIDGHLYYFKEDGSQAKGEIIEENGIKYYYEPESGILASGRYLQVGDDQWMYFKQDGSLAIGQVRADHGYLKYFDKNGIQVKGKTVVEDGKTYYYDAHSGALVTSSFAEIAPNQWSYFNTDGQALKGKWTINGKEYYFDENGIQYKGKAIKVGSRYKYYDENDGQPVTNRFAQIEPNVWAYFGADCYAVTGEQVINGQHLYFDENGRQVKGAYVTVNGQRRYYDANTGEYVPGR
modifications: Streptococcus salivarius JIM8777
B2: GTF4336NT: N terminal-only truncated GTF4336 from Streptococcus salivarius SK126, SEQ ID NO: 104, strain SG1291 (protein)
chain: INGKQYYVNSDGSVRKNFVFEQDGKSYYFDAETGALATKSQDEFSTEPIKATVDFSSGNQLYKNDDKSLDQLDTFITADAWYRPKSILKDGKTWTASTEADKRPLLMVWWPDKSTQVNYLNYMQNQGLGAGSFSTNSSQESLDQAAKAVQTKIEERIAREGNTNWLRTSIDQFIKTQPGWNSSTENSSYDHLQGGQLLFNNSKGDTGNRTSHANSDYRLLNRTPTNQTGTRKYFKDNSIGGLEFLLANDIDNSNPAVQAEQLNWLHFMMNIGSIMANDPTANFDGLRVDALDNVDADLLQIASDYFKAAYGVDKSEANAIKHLSYLEAWSANDPYYNKDTKGAQLPIDNALRNALTNLLMRDKNTRMQLGDMTAFINSSLNPRGANDKNGERMANYIFTRAHDTEAQTIIQRIIRDRINPNLFGYNFTRDEIKKAFEIYNEDIDKAHKTYASYNLPSVYALMLTNKDSVTRVYYGDLYREDGHYMAKKTPYFDAIDTLLRARIKYVAGGQDMEVKKVGNDGLLTSVRYGKGANNRTDLGTSETRTQGMGVIMTNNYDFRLGSNETVTMNMGRAHRNQLYRPLLLTTKDGIATYFNDSDVPKNLLKRTDWNGNLTFNANDVFGVENVQVSGYLGVWVPVGAKANQDARTQPSNRANSDGQVYKSSAALDSQVMYEAFSNFQAFADDQPELYMNRVLAKNTDLLKAWGVTSVGLPPQYVSSKDGTFLDSTIDNGYAFDDRYDMALSQNNKYGSLEDLLNVLRALHKDGIQAIADWVPDQIYNLPGKEVVNATRVNGYGYHQQGYQIVDQAYVANTRTDGTDYQGKYGGAFLDELKAKYPSIFNRVQISNGKQLPTNEKITKWSAKYFNGTNILGRGINYVLRDDKTNQYFNTSANSQLLPTPLRDTGAITSTQVFQRRGQDVYFLRDNQAVKNEFVQDGNGNWYYFGADGKMTKGAQTINKKDYYFFDNGIQLRNALRRANNGYTYYYGLDGAMVKNAFVDFDDKRKQVRAFTTQGTMVVGNLHWSGHHFYFDRETGIQAKDRIVRTDDGKLHYYVAGTGDMGRNVFATDSSTGKRYYFDADGNTVTGSRVIDGKTYYFNQDGSVGTAYSNRADSIIFENGKARYITPAGEIGRSIFVYNPATKAWNYFDKEGNRVTGRQYIDGHLYYFKEDGSQAKGEIIEENGIKYYYEPESGILASGRYLQVGDDQWMYFKQDGSLAIGQVRADHGYLKYFDKNGIQVKGKTIVEDGKTYYYDAHSGALVTSSFAEIAPNQWSYFNTDGQALKGKWTINGKEYYFDQNGIQYKGKAVKVGSRYKYYDENDGQPVTNRFAQIEPNVWAYFGADGYAVTGEQVINGQHLYFDQSGRQVKGAYVTVNGQRRYYDANTGEYVPGR
modifications: Streptococcus salivarius SK126
B3: GTF4491T5: T5 C-terminal truncation of GTF4491, SEQ ID NO: 122, strain SG1321 (protein)
chain: INGKQYYVNSDGSVRKNFVFEQDGKSYYFDAETGALATKSQDEFSTEPIKATVDFSSGNQLYKNDDKSLDQLDTFITADAWYRPKSILKDGKTWTASTEADKRPLLMVWWPDKSTQVNYLNYMQNQGLGAGSFSTNSSQESLDQAAKAVQTKIEERIAREGNTNWLRTSIDQFIKTQPGWNSSTENSSYDHLQGGQLLFNNSKGDTGNRTSHANSDYRLLNRTPTNQTGTRKYFKDNSIGGLEFLLANDIDNSNPAVQAEQLNWLHFMMNIGSIMANDPTANFDGLRVDALDNVDADLLQIASDYFKAAYGVDKSEANAIKHLSYLEAWSANDPYYNKDTKGAQLPIDNALRNALTNLLMRDKNTRMQLGDMTAFINSSLNPRGANDKNGERMANYIFTRAHDTEAQTIIQRIIRDRINPNLFGYNFTRDEIKKAFEIYNEDIDKAHKTYASYNLPSVYALMLTNKDSVTRVYYGDLYREDGHYMAKKTPYFDAIDTLLRARIKYVAGGQDMEVKKVGNDGLLTSVRYGKGANNRTDLGTSETRTQGMGVIMTNNYDFRLGSNETVTMNMGRAHRNQLYRPLLLTTKDGIATYLNDSDVPKNLLKRTDWNGNLTFNANDVFGVENVQVSGYLGVWVPYGAKANQDARTQPSNRANSDGQVYKSSAALDSQVMYEAFSNFQAFADDQPELYMNRVLAKNTDLLKAWGITSVGLPPQYVSSKDGTFLDSIIDNGYAFDDRYDMALSQNNKYGSLEDLLNVLRALHKDGIQAIADWVPDQIYNLPGKEVVNATRVNGYGYHQQGYQIVDQAYVANTRTDGTDYQGKYGGAFLDELKAKYPSIFNRVQISNGKQLPTNEKITKWSAKYFNGTNILGRGINFVLRDDKTNQYFNTSANSQLLPTPLRDTGAITSTQVFQRRGQDVYFLRDNQTVKNEFVQDGNGNWYYFGGDGKMTKGAQNINSKDYYFFDNGVQLRNALRRASNGYTYYYGLDGAMVKNAFVDFDDKHKQ
modifications: T5 C-terminal truncation of GTF4491
B4: GTF4491T4: T4 C-terminal truncation of GTF4491, SEQ ID NO: 132, strain SG1320 (protein)
chain: INGKQYYVNSDGSVRKNFVFEQDGKSYYFDAETGALATKSQDEFSTEPIKATVDFSSGNQLYKNDDKSLDQLDTFITADAWYRPKSILKDGKTWTASTEADKRPLLMVWWPDKSTQVNYLNYMQNQGLGAGSFSTNSSQESLDQAAKAVQTKIEERIAREGNTNWLRTSIDQFIKTQPGWNSSTENSSYDHLQGGQLLFNNSKGDTGNRTSHANSDYRLLNRTPTNQTGTRKYFKDNSIGGLEFLLANDIDNSNPAVQAEQLNWLHFMMNIGSIMANDPTANFDGLRVDALDNVDADLLQIASDYFKAAYGVDKSEANAIKHLSYLEAWSANDPYYNKDTKGAQLPIDNALRNALTNLLMRDKNTRMQLGDMTAFINSSLNPRGANDKNGERMANYIFTRAHDTEAQTIIQRIIRDRINPNLFGYNFTRDEIKKAFEIYNEDIDKAHKTYASYNLPSVYALMLTNKDSVTRVYYGDLYREDGHYMAKKTPYFDAIDTLLRARIKYVAGGQDMEVKKVGNDGLLTSVRYGKGANNRTDLGTSETRTQGMGVIMTNNYDFRLGSNETVTMNMGRAHRNQLYRPLLLTTKDGIATYLNDSDVPKNLLKRTDWNGNLTFNANDVFGVENVQVSGYLGVWVPYGAKANQDARTQPSNRANSDGQVYKSSAALDSQVMYEAFSNFQAFADDQPELYMNRVLAKNTDLLKAWGITSVGLPPQYVSSKDGTFLDSIIDNGYAFDDRYDMALSQNNKYGSLEDLLNVLRALHKDGIQAIADWVPDQIYNLPGKEVVNATRVNGYGYHQQGYQIVDQAYVANTRTDGTDYQGKYGGAFLDELKAKYPSIFNRVQISNGKQLPTNEKITKWSAKYFNGTNILGRGINFVLRDDKTNQYFNTSANSQLLPTPLRDTGAITSTQVFQRRGQDVYFLRDNQTVKNEFVQDGNGNWYYFGGDGKMTKGAQNINSKDYYFFDNGVQLRNALRRASNGYTYYYGLDGAMVKNAFVDFDDKHK
modifications: T4 C-terminal truncation of GTF4491

Test: GTF activity of strains (PAHBAH assay)
Assay type: biochemical
Conditions: Experiment Number 1; enzyme expressed in B. subtilis host
Experimental: GTF activity of the strains was analyzed by PAHBAH assay in three separate experiments. Due to minor variations between the expeirments, Table 2 lists the activity of the truncated enzymes in the B. subtilis host along with the experiment in which the activity was measured. Most of the T1, T2, and T6 truncations decreased the activity of the enzymes, whereas the T4 and T5 C-terminal truncations retained similar activity relative to the respective N terminal-only truncations (NT). […] To identify specific amino acid residues within the catalytic domain that may be involved in producing the soluble α-glucan fiber, we analyzed the crystal structures (PDB Identifiers: 3AIB, 3AIC, and 3HZ3) of the catalytic domains of three glucosyltransferases to identify residues within 8 Angstroms of the bound ligand. 57 residues met that criterion. A motif was generated based on the corresponding 57 amino acids in GTF0459 and each of the identified homologs. The motif was then used to generate a consensus sequence to capture the variability in the catalytic domains of GTF0459 and the identified homologs. The consensus sequence is provided as SEQ ID NO: 153.

Molecule	GTF activity of strains: Acitivity [U/mL]
B1	42.3
B2	34.5

Same assay, conditions: Experiment Number 2; enzyme expressed in B. subtilis host

Molecule	GTF activity of strains: Acitivity [U/mL]
B1	53.1
B3	50.6
B2	48.6
B4	45.3
